A word on the stoichiometry N: it is a count of units in the complex or per binding partner.

From publication PMC12441120, “Gephyrin filaments represent the molecular basis of inhibitory postsynaptic densities” (Nature Communications, 2025) come the findings set out here.

Data set [1] deals with full-length wild-type gephyrin (Geph^WT) (human) (UniProt Q9NQX3). The experiment in a line: SEC; analytical SEC (Superdex 6 increase or Superose 6 increase 10/300 GL) in grid buffer (25 mM Tris pH 7.5, 250 mM NaCl, 25 mM Arg/Glu, 5 mM β-mercaptoethanol, 1.5% sucrose); Geph^WT with a 3-fold excess of GlyR-loop; no filaments seen in SEC. (In general: Size exclusion chromatography separates by hydrodynamic size, large species first.)

Data set [2] concerns the molecule itself. The experiment in a line: cell-based or functional assay.

Turning to “full-length wild-type gephyrin (Geph^WT) (from UniProt Q9NQX3 1-736) (natural protein)”, the stoichiometry N in data set [1] came to 3.

B1: isolated gephyrin E-domain, wild type (GephE^WT, residues 327–736) (domain or fragment, human, UniProt Q9NQX3 327-736, looked up)
chain: DKAFITVLEMTPVLGTEIINYRDGMGRVLAQDVYAKDNLPPFPASVKDGYAVRAADGPGDRFIIGESQAGEQPTQTVMPGQVMRVTTGAPIPCGADAVVQVEDTELIRESDDGTEELEVRILVQARPGQDIRPIGHDIKRGECVLAKGTHMGPSEIGLLATVGVTEVEVNKFPVVAVMSTGNELLNPEDDLLPGKIRDSNRSTLLATIQEHGYPTINLGIVGDNPDDLLNALNEGISRADVIITSGGVSMGEKDYLKQVLDIDLHAQIHFGRVFMKPGLPTTFATLDIDGVRKIIFALPGNPVSAVVTCNLFVVPALRKMQGILDPRPTIIKARLSCDVKLDPRPEYHRCILTWHHQEPLPWAQSTGNQMSSRLMSMRSANGLLMLPPKTEQYVELHKGEVVDVMVIGRL
As to B1, in data set [2], the “sedimentation assay of in vitro phase separation (LLPS) with GlyR-LD: GephE in the pellet fraction against the sample without GlyR-LD” value is approximately 10 fold.
